This note sets out measurements from patent publication US20160319265.

The series relates to TEV substrate.

In the case of AcTEV protease, the TEV Substrate Cleavage (%), 30 minute was 73.9%; the TEV Substrate Cleavage (%), 60 minute turned out to be 91.6%; the TEV Substrate Cleavage (%), 120 minute is 97.2%.
